In US20170305985A1 (Stanford University, published 2017):

Molecular target: Met receptor on Madine-Darby canine kidney (MDCK) cells (canine (MDCK cells), UniProt Q75ZY9 25-1382)
Assay: cell-based or functional assay

B1: recombinant soluble Aras-4 (ligand)
chain: YAEGQGKRRNTIHEFKKSAKTTLIKIDPALRIKTEKANTADQCANRCTRSKGLPFTCKAFVFDKARKRCLWFPFNSMSSGVKKEFGHEFDLYENKAYIRDCIIGRGRNYRGTVSITKSGIKCQPWSAMIPHEHSFLPSSYRGEDLRENYCRNPRGEEGGPWCYTSDPEVRYEVCDIPQCSEVE
- inhibition of HGF-induced activation of Met, MDCK cells: ~5 fold lower concentration
